One molecule from PMC8956657 (Nature Communications, 2022) can be followed below.

Experiment in all cases: fluorescence polarisation
Holding throughout (details): both partners purified
On the technique in general: In fluorescence polarisation assays a small probe gives low polarisation when free and higher when bound to something large.

In test [1] the target is T1, IMPα3 lacking the IBB domain (residues 64-521) (UniProt O00629 64-521).
T1 construct: also called ΔIBB-IMPα3; KPNA4
T1 sequence (looked up): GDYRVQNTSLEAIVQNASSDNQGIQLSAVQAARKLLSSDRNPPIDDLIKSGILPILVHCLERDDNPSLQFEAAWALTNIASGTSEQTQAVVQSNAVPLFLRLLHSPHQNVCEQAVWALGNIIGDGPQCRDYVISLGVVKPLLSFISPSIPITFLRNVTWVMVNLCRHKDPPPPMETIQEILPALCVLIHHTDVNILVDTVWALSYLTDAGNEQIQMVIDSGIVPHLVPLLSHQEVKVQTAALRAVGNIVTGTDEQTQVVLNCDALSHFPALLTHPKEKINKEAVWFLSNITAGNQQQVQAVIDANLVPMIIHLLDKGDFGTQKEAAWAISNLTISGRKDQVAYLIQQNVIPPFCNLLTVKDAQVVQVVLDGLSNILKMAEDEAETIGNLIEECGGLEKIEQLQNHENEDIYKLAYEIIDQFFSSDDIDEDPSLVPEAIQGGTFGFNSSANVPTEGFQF

The target of test [2] is IMPα1 lacking the IBB domain (residues 70-529) (UniProt P52292 70-529).
Test [3] concerns the target T2, IMPα5 lacking the IBB domain (residues 73-538) (UniProt P52294 73-538).
T2 construct: also called ΔIBB-IMPα5; importin alpha 5

Test [4] concerns the target T3, IMPα7 lacking the IBB domain (residues 73-536) (UniProt O60684 73-536).
T3 construct: also called ΔIBB-IMPα7; importin alpha 7

Where no end group is shown, it is not given here.

T2 sequence (P52294 73-538): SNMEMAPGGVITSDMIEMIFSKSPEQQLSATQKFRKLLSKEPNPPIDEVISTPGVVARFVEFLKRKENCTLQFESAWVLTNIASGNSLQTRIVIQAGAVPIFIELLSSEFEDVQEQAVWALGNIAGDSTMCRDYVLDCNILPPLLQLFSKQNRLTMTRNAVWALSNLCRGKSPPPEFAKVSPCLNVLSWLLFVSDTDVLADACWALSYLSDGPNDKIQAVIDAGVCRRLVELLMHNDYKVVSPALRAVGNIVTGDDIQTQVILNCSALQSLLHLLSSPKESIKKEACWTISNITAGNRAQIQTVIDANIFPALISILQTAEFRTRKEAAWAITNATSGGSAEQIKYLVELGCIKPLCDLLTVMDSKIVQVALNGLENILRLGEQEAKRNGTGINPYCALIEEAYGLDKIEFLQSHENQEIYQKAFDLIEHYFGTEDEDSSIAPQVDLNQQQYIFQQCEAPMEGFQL
T3 sequence (O60684 73-536): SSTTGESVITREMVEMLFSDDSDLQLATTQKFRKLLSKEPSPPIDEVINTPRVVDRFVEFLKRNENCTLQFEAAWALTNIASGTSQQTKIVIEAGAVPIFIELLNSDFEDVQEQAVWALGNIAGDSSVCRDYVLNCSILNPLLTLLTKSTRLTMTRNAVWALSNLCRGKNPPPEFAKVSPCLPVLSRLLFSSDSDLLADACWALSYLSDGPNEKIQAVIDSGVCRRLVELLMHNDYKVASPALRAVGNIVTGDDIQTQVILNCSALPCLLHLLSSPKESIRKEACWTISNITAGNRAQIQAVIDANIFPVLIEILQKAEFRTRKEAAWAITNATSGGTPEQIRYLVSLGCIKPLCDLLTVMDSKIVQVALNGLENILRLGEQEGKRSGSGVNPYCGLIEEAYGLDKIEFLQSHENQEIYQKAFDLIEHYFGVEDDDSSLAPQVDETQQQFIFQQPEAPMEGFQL

B1: FITC-tagged MERS-CoV ORF4b NLS peptide (residues 19-39), wild type (peptide)
peptide: RKARKRSHSPTKKLRYVKRRF
modifications: also: FITC-tagged
As usually defined, the Kd is a measure of binding affinity in units of concentration. Low values mean higher affinity, high ones lower affinity. As for B1, the results for the equilibrium dissociation constant (Kd) in test [1], in test [2] and in test [4] were 1.4 nM, 2.5 nM and 1.9 nM, respectively. For the same molecule, the binding result in test [3] is “binds”.
